Experimental data reported in the supplement of paper PMC9112550, “Optimization of the antimicrobial peptide Bac7 by deep mutational scanning” (BMC Biology, 2022).

test system: Escherichia coli TOP10; assay: shrunken log2 fold change of peptide-encoding DNA abundance (4.5 h post-induction vs induction); higher = less antimicrobial activity (less host growth inhibition); settings: time post-induction: 4.5 h; library: site-saturation at positions 5, 18, 19, 20
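Also: peptides expressed intracellularly from a pBAD plasmid library in pooled LB shake-flask culture, induced with 0.3% L-arabinose, DNA abundance read by NGS, three biological replicates, DESeq2 with apeglm shrinkage.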

Row | Sequence | shrunken log2 fold change
1 | RRIRSRPPRLPRPRPRPDDDPRP | -0.0062
2 | RRIRTRPPRLPRPRPRPCHTPRP | -0.166
3 | RRIRSRPPRLPRPRPRPMREPRP | 0.142
4 | RRIRCRPPRLPRPRPRPETWPRP | 0.203
5 | RRIRFRPPRLPRPRPRPFVIPRP | -0.479
6 | RRIRFRPPRLPRPRPRPLAQPRP | 0.097
7 | RRIRVRPPRLPRPRPRPCCEPRP | -0.0815
8 | RRIRGRPPRLPRPRPRPVCIPRP | 0.344
9 | RRIRIRPPRLPRPRPRPMMMPRP | -0.227
10 | RRIRIRPPRLPRPRPRPKHRPRP | -0.103
11 | RRIRLRPPRLPRPRPRPLRFPRP | 0.477
12 | RRIRPRPPRLPRPRPRPRDLPRP | 0.172
13 | RRIRERPPRLPRPRPRPWRIPRP | -0.0301
14 | RRIRHRPPRLPRPRPRPIFLPRP | -0.572
15 | RRIRPRPPRLPRPRPRPMWAPRP | -0.201
16 | RRIRRRPPRLPRPRPRPIYSPRP | -0.159
17 | RRIRARPPRLPRPRPRPTEWPRP | 0.483
18 | RRIRQRPPRLPRPRPRPHSVPRP | -0.0178
19 | RRIRCRPPRLPRPRPRPARVPRP | 0.453
20 | RRIRPRPPRLPRPRPRPQKCPRP | -0.0778
21 | RRIRVRPPRLPRPRPRPSDKPRP | -0.153
22 | RRIRPRPPRLPRPRPRPPKMPRP | 0.401
23 | RRIRWRPPRLPRPRPRPSNMPRP | -0.923
24 | RRIRKRPPRLPRPRPRPISRPRP | -0.00748
25 | RRIRDRPPRLPRPRPRPAKQPRP | 0.181

Row | Sequence | shrunken log2 fold change
26 | RRIRCRPPRLPRPRPRPRTIPRP | -0.154
27 | RRIRSRPPRLPRPRPRPNDAPRP | 0.0331
28 | RRIRNRPPRLPRPRPRPRMFPRP | -0.362
29 | RRIRPRPPRLPRPRPRPRHWPRP | 0.423
30 | RRIRRRPPRLPRPRPRPGYIPRP | -0.177
31 | RRIRVRPPRLPRPRPRPDHIPRP | -0.206
32 | RRIRQRPPRLPRPRPRPDMKPRP | 0.26
33 | RRIRIRPPRLPRPRPRPTVFPRP | -0.237
34 | RRIRVRPPRLPRPRPRPFCHPRP | -0.264
35 | RRIRQRPPRLPRPRPRPPLYPRP | 0.233
36 | RRIRTRPPRLPRPRPRPPLLPRP | 0.172
37 | RRIRIRPPRLPRPRPRPPIMPRP | -0.494
38 | RRIRDRPPRLPRPRPRPLTAPRP | 0.48
39 | RRIRLRPPRLPRPRPRPPDHPRP | 0.0205
40 | RRIRVRPPRLPRPRPRPAFRPRP | 0.186
41 | RRIRWRPPRLPRPRPRPMRCPRP | 0.353
42 | RRIRKRPPRLPRPRPRPADFPRP | 0.344
43 | RRIRLRPPRLPRPRPRPLNAPRP | -0.0775
44 | RRIRSRPPRLPRPRPRPQYKPRP | -0.464
45 | RRIRKRPPRLPRPRPRPDYIPRP | -0.0117
46 | RRIRARPPRLPRPRPRPPSRPRP | 0.691
47 | RRIRSRPPRLPRPRPRPIKWPRP | -0.197
48 | RRIRYRPPRLPRPRPRPIHQPRP | -0.0218
49 | RRIRARPPRLPRPRPRPISSPRP | -0.102
50 | RRIRPRPPRLPRPRPRPHKFPRP | -0.547

Row | Sequence | shrunken log2 fold change
51 | RRIRHRPPRLPRPRPRPIKFPRP | -0.0972
52 | RRIRFRPPRLPRPRPRPPAKPRP | 0.633
53 | RRIRIRPPRLPRPRPRPGRGPRP | 0.268
54 | RRIRQRPPRLPRPRPRPSPNPRP | 0.16
55 | RRIRMRPPRLPRPRPRPPGNPRP | 0.475
56 | RRIRDRPPRLPRPRPRPQELPRP | -0.238
57 | RRIRERPPRLPRPRPRPLHIPRP | -0.404
58 | RRIRQRPPRLPRPRPRPSDIPRP | -0.0397
59 | RRIRMRPPRLPRPRPRPMEEPRP | 2.45
60 | RRIRMRPPRLPRPRPRPIVCPRP | -0.0438
61 | RRIRMRPPRLPRPRPRPAMFPRP | 0.388
62 | RRIRHRPPRLPRPRPRPHMRPRP | -0.00342
63 | RRIRRRPPRLPRPRPRPEGWPRP | 3.17
64 | RRIRPRPPRLPRPRPRPELFPRP | 0.25
65 | RRIRNRPPRLPRPRPRPWISPRP | -0.0184
66 | RRIRMRPPRLPRPRPRPGWLPRP | 0.533
67 | RRIRLRPPRLPRPRPRPPAIPRP | 2.54
68 | RRIRARPPRLPRPRPRPAMGPRP | 0.505
69 | RRIRIRPPRLPRPRPRPVLHPRP | -0.447
70 | RRIRSRPPRLPRPRPRPTQSPRP | 0.449
71 | RRIRMRPPRLPRPRPRPPIRPRP | 0.248
72 | RRIRYRPPRLPRPRPRPLFQPRP | -0.76
73 | RRIRQRPPRLPRPRPRPPWWPRP | 0.498
74 | RRIRLRPPRLPRPRPRPQKIPRP | 0.0459
75 | RRIRRRPPRLPRPRPRPRHFPRP | -0.156

Row | Sequence | shrunken log2 fold change
76 | RRIRNRPPRLPRPRPRPSQQPRP | -0.111
77 | RRIRGRPPRLPRPRPRPWLVPRP | 0.422
78 | RRIRHRPPRLPRPRPRPAFTPRP | -0.311
79 | RRIRARPPRLPRPRPRPYTKPRP | -0.156
80 | RRIRWRPPRLPRPRPRPADKPRP | 0.141
81 | RRIRVRPPRLPRPRPRPAWRPRP | 0.712
82 | RRIRMRPPRLPRPRPRPMWTPRP | 0.038
83 | RRIRHRPPRLPRPRPRPATTPRP | -0.101
84 | RRIRGRPPRLPRPRPRPKSRPRP | 0.0451
85 | RRIRNRPPRLPRPRPRPWATPRP | -0.188
86 | RRIRGRPPRLPRPRPRPTNGPRP | 0.254
87 | RRIRRRPPRLPRPRPRPPRYPRP | 0.978
88 | RRIRMRPPRLPRPRPRPTRYPRP | 0.628
89 | RRIRQRPPRLPRPRPRPYCVPRP | -0.00867
90 | RRIRIRPPRLPRPRPRPHFAPRP | -0.135
91 | RRIRGRPPRLPRPRPRPCDAPRP | 0.473
92 | RRIRTRPPRLPRPRPRPSHPPRP | -0.416
93 | RRIRTRPPRLPRPRPRPVLNPRP | -0.269
94 | RRIRCRPPRLPRPRPRPITQPRP | -0.0791
95 | RRIRLRPPRLPRPRPRPSGTPRP | -0.114
96 | RRIRIRPPRLPRPRPRPPMFPRP | -0.181
97 | RRIRSRPPRLPRPRPRPYWEPRP | -0.0147
98 | RRIRHRPPRLPRPRPRPGMYPRP | -0.298
99 | RRIRGRPPRLPRPRPRPVLWPRP | 1
100 | RRIRDRPPRLPRPRPRPCNPPRP | -0.13

Row | Sequence | shrunken log2 fold change
101 | RRIRMRPPRLPRPRPRPYKQPRP | -0.000436
102 | RRIRDRPPRLPRPRPRPAGYPRP | 0.528
103 | RRIRYRPPRLPRPRPRPMYAPRP | -0.0214
104 | RRIRIRPPRLPRPRPRPSKCPRP | -0.788
105 | RRIRSRPPRLPRPRPRPNITPRP | -0.582
106 | RRIRWRPPRLPRPRPRPHRAPRP | -0.0058
107 | RRIRMRPPRLPRPRPRPMRWPRP | 0.539
108 | RRIRTRPPRLPRPRPRPPLEPRP | 0.531
109 | RRIRARPPRLPRPRPRPVGYPRP | 0.265
110 | RRIRPRPPRLPRPRPRPAWSPRP | 0.152
111 | RRIRDRPPRLPRPRPRPIFVPRP | 0.0563
112 | RRIRFRPPRLPRPRPRPCKIPRP | -0.0538
113 | RRIRYRPPRLPRPRPRPFEQPRP | -0.382
114 | RRIRDRPPRLPRPRPRPITEPRP | -0.0351
115 | RRIRNRPPRLPRPRPRPVQEPRP | -0.0428
116 | RRIRERPPRLPRPRPRPKEHPRP | -0.457
117 | RRIRYRPPRLPRPRPRPEPPPRP | 0.49
118 | RRIRQRPPRLPRPRPRPAITPRP | -0.114
119 | RRIRNRPPRLPRPRPRPTCQPRP | 0.0956
120 | RRIRWRPPRLPRPRPRPMTKPRP | 0.181
121 | RRIRNRPPRLPRPRPRPSQRPRP | -0.0448
122 | RRIRRRPPRLPRPRPRPEYYPRP | -0.324
123 | RRIRMRPPRLPRPRPRPRQFPRP | 0.582
124 | RRIRCRPPRLPRPRPRPTDCPRP | 0.0318
125 | RRIRSRPPRLPRPRPRPCWYPRP | -0.393

Row | Sequence | shrunken log2 fold change
126 | RRIRVRPPRLPRPRPRPNILPRP | -0.426
127 | RRIRERPPRLPRPRPRPCREPRP | -0.129
128 | RRIRLRPPRLPRPRPRPIVTPRP | 2.68
129 | RRIRRRPPRLPRPRPRPHFYPRP | 0.0714
130 | RRIRARPPRLPRPRPRPINVPRP | -0.0118
131 | RRIRWRPPRLPRPRPRPEGLPRP | 0.267
132 | RRIRPRPPRLPRPRPRPKMTPRP | 0.0519
133 | RRIRKRPPRLPRPRPRPYGGPRP | 0.0335
134 | RRIRPRPPRLPRPRPRPSDSPRP | -0.361
135 | RRIRKRPPRLPRPRPRPRHQPRP | 1.82
136 | RRIRRRPPRLPRPRPRPGPNPRP | 0.251
137 | RRIRHRPPRLPRPRPRPVPVPRP | 0.0601
138 | RRIRSRPPRLPRPRPRPWSHPRP | -0.174
139 | RRIRDRPPRLPRPRPRPYKMPRP | -0.17
140 | RRIRPRPPRLPRPRPRPNEGPRP | 0.0293
141 | RRIRARPPRLPRPRPRPPQGPRP | 0.689
142 | RRIRHRPPRLPRPRPRPPATPRP | 0.29
143 | RRIRCRPPRLPRPRPRPDPLPRP | 0.00869
144 | RRIRPRPPRLPRPRPRPNIAPRP | 0.225
145 | RRIRVRPPRLPRPRPRPMNMPRP | -0.426
146 | RRIRMRPPRLPRPRPRPPRMPRP | 0.893
147 | RRIRFRPPRLPRPRPRPVNRPRP | 0.188
148 | RRIRRRPPRLPRPRPRPLWIPRP | -0.22
149 | RRIRWRPPRLPRPRPRPEQKPRP | 0.0146
150 | RRIRKRPPRLPRPRPRPMCMPRP | -0.169
